Series [1] concerns the molecule itself. Put plainly: cryo-EM structure; SEC-purified complex of Cas7, Cas8g, Csb2 and 72 nt crRNA, 1 mg/ml; Titan Krios 300 kV; multibody refinement for Cas8g (~8 Å).
In another series the target is T1, Csb2;Cas7 (Thioalkalivibrio sulfidiphilus …, UniProt B8GLG2;B8GLG3 1-516;1-316, |).
T1 sequence 1: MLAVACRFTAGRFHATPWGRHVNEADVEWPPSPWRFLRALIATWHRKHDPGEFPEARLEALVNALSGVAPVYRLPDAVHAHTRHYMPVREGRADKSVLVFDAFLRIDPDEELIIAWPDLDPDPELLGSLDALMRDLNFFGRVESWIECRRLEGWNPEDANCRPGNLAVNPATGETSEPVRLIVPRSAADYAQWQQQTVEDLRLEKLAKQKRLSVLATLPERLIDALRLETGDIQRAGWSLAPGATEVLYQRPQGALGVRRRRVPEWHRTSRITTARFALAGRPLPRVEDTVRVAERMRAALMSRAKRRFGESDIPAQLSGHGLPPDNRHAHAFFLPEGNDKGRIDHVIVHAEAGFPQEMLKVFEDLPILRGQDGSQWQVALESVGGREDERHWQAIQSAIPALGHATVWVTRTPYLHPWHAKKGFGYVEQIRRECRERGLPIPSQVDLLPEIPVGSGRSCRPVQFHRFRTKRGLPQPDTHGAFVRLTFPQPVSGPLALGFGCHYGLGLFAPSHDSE
T1 sequence 2: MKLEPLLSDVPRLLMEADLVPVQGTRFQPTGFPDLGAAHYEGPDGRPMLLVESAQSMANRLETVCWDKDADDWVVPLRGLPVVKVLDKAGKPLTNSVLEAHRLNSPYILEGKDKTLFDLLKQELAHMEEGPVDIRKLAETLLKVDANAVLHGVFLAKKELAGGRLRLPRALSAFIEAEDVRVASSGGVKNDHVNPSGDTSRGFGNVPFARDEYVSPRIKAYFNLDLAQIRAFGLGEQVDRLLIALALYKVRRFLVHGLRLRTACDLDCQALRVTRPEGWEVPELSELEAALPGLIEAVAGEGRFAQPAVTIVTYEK
The experiment in a line: EMSA; 0.8 uM effector; no Cas8g, no Cas3; no apparent shift; Anisotropy: 25 nM RNA, 50 mM NaCl, 1 mM DTT, 5 mM MgCl2, 1 mM EDTA, 0.1 U/ul RNase inhibitor, 37 C; EMSA/plasmid: 20 mM Tris-HCl, 50 mM NaCl, 1 mM DTT, 0.1 mg/ml BSA, 5 mM MgCl2, 1 mM EDTA, 37 C (30 min EMSA, 1 h plasmid). The following applies: protein: recombinant;recombinant, tags: cloning described in pET-Duet and pEV5HisTEV, His8-TEV tag removed;N-terminal His8-TEV, copies: 1;7, label: 32P 5' end on DNA, crRNA / target strand / non-target strand, target strand as printed has 1 nt 5' overhang.

The next series deals with Csb2;Cas7;Cas8g;Cas3 (Thioalkalivibrio sulfidiphilus …, UniProt B8GLG2;B8GLG3;B8GLG4;B8GLG5 1-516;1-316;1-720;1-828, |||). The experiment in a line: EMSA; 0.8 uM effector; near-complete shift; Anisotropy: 25 nM RNA, 50 mM NaCl, 1 mM DTT, 5 mM MgCl2, 1 mM EDTA, 0.1 U/ul RNase inhibitor, 37 C; EMSA/plasmid: 20 mM Tris-HCl, 50 mM NaCl, 1 mM DTT, 0.1 mg/ml BSA, 5 mM MgCl2, 1 mM EDTA, 37 C (30 min EMSA, 1 h plasmid). As to conditions: protein: recombinant;recombinant;recombinant;recombinant; tags: cloning described in pET-Duet and pEV5HisTEV; copies: 1;7;1;1; label: 32P 5' end on DNA; crRNA / target strand / non-target strand; target strand as printed has 1 nt 5' overhang.

A further series addresses T2, Cas3 (Thioalkalivibrio sulfidiphilus HL-EbGr7, UniProt B8GLG5 1-828).
T2 sequence: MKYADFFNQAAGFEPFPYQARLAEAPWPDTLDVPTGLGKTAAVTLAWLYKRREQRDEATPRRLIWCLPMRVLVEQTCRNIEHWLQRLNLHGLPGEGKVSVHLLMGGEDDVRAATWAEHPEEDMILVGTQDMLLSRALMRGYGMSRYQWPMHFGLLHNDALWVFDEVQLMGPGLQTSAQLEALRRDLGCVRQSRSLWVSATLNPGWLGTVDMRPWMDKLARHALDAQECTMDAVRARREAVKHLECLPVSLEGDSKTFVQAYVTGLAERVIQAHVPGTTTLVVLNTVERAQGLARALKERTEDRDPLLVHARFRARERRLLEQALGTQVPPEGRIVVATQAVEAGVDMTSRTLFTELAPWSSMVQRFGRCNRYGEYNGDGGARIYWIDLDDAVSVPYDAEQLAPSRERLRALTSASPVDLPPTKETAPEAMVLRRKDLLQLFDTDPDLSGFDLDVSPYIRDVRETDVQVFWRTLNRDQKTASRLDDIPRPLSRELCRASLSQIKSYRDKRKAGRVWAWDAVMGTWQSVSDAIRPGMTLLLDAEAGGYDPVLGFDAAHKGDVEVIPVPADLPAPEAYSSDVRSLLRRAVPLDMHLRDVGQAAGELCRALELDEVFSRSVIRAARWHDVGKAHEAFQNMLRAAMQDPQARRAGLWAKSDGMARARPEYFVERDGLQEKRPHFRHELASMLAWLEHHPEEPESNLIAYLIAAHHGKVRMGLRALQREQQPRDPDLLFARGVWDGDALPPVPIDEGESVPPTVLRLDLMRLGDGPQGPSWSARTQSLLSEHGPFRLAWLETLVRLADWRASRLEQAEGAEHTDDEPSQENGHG
The experiment in a line: EMSA; Cas3 alone; TS- or NTS-labelled; Anisotropy: 25 nM RNA, 50 mM NaCl, 1 mM DTT, 5 mM MgCl2, 1 mM EDTA, 0.1 U/ul RNase inhibitor, 37 C; EMSA/plasmid: 20 mM Tris-HCl, 50 mM NaCl, 1 mM DTT, 0.1 mg/ml BSA, 5 mM MgCl2, 1 mM EDTA, 37 C (30 min EMSA, 1 h plasmid). As to conditions: protein: recombinant; tags: N-terminal His8-TEV, removed; label: 32P on TS or NTS (EMSA); 1 nt 5' overhang on strand 1 as printed.

Series [2] deals with T3, Csb2 N-terminal (Cas5-like) domain (Thioalkalivibrio sulfidiphilus HL-EbGr7, UniProt B8GLG2 1-259).
T3 sequence: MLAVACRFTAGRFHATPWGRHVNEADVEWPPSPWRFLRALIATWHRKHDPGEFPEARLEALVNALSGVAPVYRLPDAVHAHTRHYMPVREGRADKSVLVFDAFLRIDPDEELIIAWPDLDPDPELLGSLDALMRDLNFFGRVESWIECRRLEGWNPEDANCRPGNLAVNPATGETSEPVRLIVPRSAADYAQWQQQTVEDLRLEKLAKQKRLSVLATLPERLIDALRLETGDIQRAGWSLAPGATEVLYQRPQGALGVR
The experiment in a line: fluorescence anisotropy; Anisotropy: 25 nM RNA, 50 mM NaCl, 1 mM DTT, 5 mM MgCl2, 1 mM EDTA, 0.1 U/ul RNase inhibitor, 37 C; EMSA/plasmid: 20 mM Tris-HCl, 50 mM NaCl, 1 mM DTT, 0.1 mg/ml BSA, 5 mM MgCl2, 1 mM EDTA, 37 C (30 min EMSA, 1 h plasmid). As to conditions: protein: recombinant, tags: N-terminal His8-TEV, removed.

In series [3] the target is T4, Csb2 (Thioalkalivibrio sulfidiphilus HL-EbGr7, UniProt B8GLG2 1-516).
T4 sequence: T1 sequence 1
The experiment in a line: fluorescence anisotropy; no appreciable binding; Anisotropy: 25 nM RNA, 50 mM NaCl, 1 mM DTT, 5 mM MgCl2, 1 mM EDTA, 0.1 U/ul RNase inhibitor, 37 C; EMSA/plasmid: 20 mM Tris-HCl, 50 mM NaCl, 1 mM DTT, 0.1 mg/ml BSA, 5 mM MgCl2, 1 mM EDTA, 37 C (30 min EMSA, 1 h plasmid). The following applies: protein: recombinant; tags: cloning described in pET-Duet and pEV5HisTEV; His8-TEV tag removed.

The target in series [4] is T4, Csb2. Put plainly: fluorescence anisotropy; 5 mM MgCl2, 1 mM EDTA; Anisotropy: 25 nM RNA, 50 mM NaCl, 1 mM DTT, 5 mM MgCl2, 1 mM EDTA, 0.1 U/ul RNase inhibitor, 37 C; EMSA/plasmid: 20 mM Tris-HCl, 50 mM NaCl, 1 mM DTT, 0.1 mg/ml BSA, 5 mM MgCl2, 1 mM EDTA, 37 C (30 min EMSA, 1 h plasmid). As to conditions: protein: recombinant; tags: cloning described in pET-Duet and pEV5HisTEV; His8-TEV tag removed; label: 5'-6-FAM; hairpin.

B1: Cas7 (type I-G CRISPR effector subunit, Thioalkalivibrio sulfidiphilus HL-EbGr7) (natural protein, UniProt B8GLG3 1-316, looked up)
chain: T1 sequence 2
notes: synthetic gene, codon-optimised for E. coli; Seven copies stand on the crRNA in the Cascade complex; also called Cas7.1 to Cas7.7 (the seven copies in the complex); source: E. coli C43(DE3), purified (HisTrap, TEV cleavage, gel filtration); not shown: His8, N-terminal, cleaved
As for B1, the “stoichiometry N” value in series [1] is 7.

B2: Tet crRNA with 80 bp target dsDNA (mixed)
RNA: AUUGAAGCAAGCUGUCCCUGAUGGUCGUCAUCUACCUGCCUGGAGUCAUCCGCGGCAUUUAGCCGCGGCCUC
DNA 1: GCCCGCGTTGCAGGCCATGCTGTCCAGGCAGGTAGATGACGACCATCAGGGACAGCTTCAAGGATCGCTCGCGGCTCTTAC
DNA 2: GTAAGAGCCGCGAGCGATCCTTGAAGCTGTCCCTGATGGTCGTCATCTACCTGCCTGGACAGCATGGCCTGCAACGCGGG
Consider B2, for which the binding result was “no binding” in the series with Csb2;Cas7 and “binds” with Csb2;Cas7;Cas8g;Cas3.

B3: 80 bp target dsDNA (no crRNA) (dsDNA)
DNA 1: B2 DNA 1
DNA 2: B2 DNA 2
In the case of B3, the binding result with Cas3 is “no binding”.

B4: 8 nt 5' handle RNA (ssRNA)
RNA: AUUGAAGC
Turning to B4, the binding result (in series [2]; with Csb2 [3]) was “no binding” in each case.

B5: 3' hairpin RNA (28 nt) (structured_RNA)
RNA: GUCAUCCGCGGCAUUUAGCCGCGGCCUC
As for B5, in series [2] (label: 5'-6-FAM, hairpin), the binding result is “no binding”. In the series with Csb2 [4], the Kd turned out to be 43 nM.

B6: CRISPR repeat RNA (36 nt) (structured_RNA)
RNA: GUCAUCCGCGGCAUUUAGCCGCGGCCUCAUUGAAGC
Turning to B6, the binding result in series [2] (label: 5'-6-FAM, hairpin) was “no binding”. The Kd with Csb2 [4] worked out at 55 nM.

(Values after PMC9638904, “Structure and mechanism of the type I-G CRISPR effector” (Nucleic Acids Research, 2022).)
